How the values were obtained:
Type in all cases: cell-based, Saccharomyces cerevisiae
ABP1 = assay: DHFR-PCA on solid medium, bait ABP1 (Fig. 1B); conditions: bait ABP1, label = prey; 2-4 replicates
Source text: (§1) Supplement 41467_2021_21873_MOESM8_ESM.xlsx, sheet "Fig1B" | column: medsize; medrep; Ratio; Score

Abp1 PPIs = assay: DHFR-PCA of Abp1 SH3-swapped baits (Fig. 2B-D, S2C, S2F); conditions: Fig2B; bait ABP1, label = prey; Replicates 4
Outline: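 Interactions were scored by DHFR protein-fragment complementation. DHFR F[1,2]-tagged Abp1 strains, whose SH3 was swapped for yeast or human ortholog domains, were crossed on YPD at 30 °C for 48 h with a 1536-format array of 575 prey-DHFR F[3] strains and 40 negatives, giving four replicates per pair. PCA selection lasted 4 days after double diploid selection.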

BBC1 = assay: DHFR-PCA on solid medium, bait BBC1 (Fig. 1B); conditions: bait BBC1, label = prey; for medrep (log2 median colony size normalized to plate background, PCA score): 2-4 replicates; for Ratio (SH3-deleted/WT medrep): only significant differences showed, PPIs completely lost have a ratio of 0.1 and the gained PPIs 2.5
Source text: as §1

[1] = system: 575 putative partners (preys) of 22 WT SH3-containing proteins; assay: DHFR-PCA on solid medium, WT and SH3-deleted baits (Fig. 1B); design: key to Score: 0: SH3-independent; 1: SH3-dependent PPIs; 2: SH3-inhibited PPIs; conditions: for medrep (log2 median colony size normalized to plate background, PCA score): label = prey
Outline: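 Interactions scored by DHFR protein-fragment complementation on solid medium using robotic pinning; preys (DHFR F[3] fusions) arrayed in duplicate with control borders. Baits carried C-terminal DHFR F[1,2]-FLAG tags, tested as wild type and as SH3-deleted versions carrying a flexible Gly/Ser stuffer.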

BEM1-2 = assay: DHFR-PCA on solid medium, bait BEM1-2 (Fig. 1B); conditions: bait BEM1-2, label = prey; for medrep (log2 median colony size normalized to plate background, PCA score): 2-8 replicates; for Ratio (SH3-deleted/WT medrep): only significant differences showed, PPIs completely lost have a ratio of 0.1 and the gained PPIs 2.5
Source text: as §1

BEM1-1 = assay: DHFR-PCA on solid medium, bait BEM1-1 (Fig. 1B); conditions: bait BEM1-1, label = prey; for medrep (log2 median colony size normalized to plate background, PCA score): 2-8 replicates; for Ratio (SH3-deleted/WT medrep): only significant differences showed, PPIs completely lost have a ratio of 0.1 and the gained PPIs 2.5
Source text: as §1

BOI2 = assay: DHFR-PCA on solid medium, bait BOI2 (Fig. 1B); conditions: bait BOI2, label = prey; for medrep (log2 median colony size normalized to plate background, PCA score): 3-8 replicates
Source text: as §1

[2] = bait SLA1-3, DHFR-PCA, Replicates 4 (2 for YCR009C, YDR388W, YIL033C)
[3] = bait SLA1-2, DHFR-PCA, Replicates 4 (2 for YCR009C, YDR388W)

Row | Molecule | medrep (log2 median colony size normalized to plate background, PCA score) (ABP1) | medrep (log2 median colony size normalized to plate background) (Abp1 PPIs) | medrep (log2 median colony size normalized to plate background, PCA score) (BBC1) | Ratio (SH3-deleted/WT medrep) (BBC1) | medrep (log2 median colony size normalized to plate background, PCA score) [1, 2] | Score ([1]; bait SLA1-3, label = prey) | medrep (log2 median colony size normalized to plate background, PCA score) (BEM1-2) | Ratio (SH3-deleted/WT medrep) (BEM1-2) | medrep (log2 median colony size normalized to plate background, PCA score) (BEM1-1) | Ratio (SH3-deleted/WT medrep) (BEM1-1) | medrep (log2 median colony size normalized to plate background, PCA score) [1, 3] | Score ([1]; bait SLA1-2, label = prey) | medrep (log2 median colony size normalized to plate background, PCA score) (BOI2) | Ratio (SH3-deleted/WT medrep) (BOI2; only significant differences showed, PPIs completely lost have a ratio of 0.1 and the gained PPIs 2.5) | Ratio (SH3-deleted/WT medrep) ([1]; bait SLA1-2, label = prey, only significant differences shown, PPIs completely lost have a ratio of 0.1, gained PPIs 2.5)
1 | YBL007C (protein, UniProt P32790 1-1244, looked up) Actin cytoskeleton-regulatory …: MTVFLGIYRAVYAYEPQTPEELAIQEDDLLYLLQKSDIDDWWTVKKRVIGSDSEEPVGLVPSTYIEEAPVLKKVRAIYDYEQVQNADEELTFHENDVFDVFDDKDADWLLVKSTVSNEFGFIPGNYVEPENGSTSKQEQAPAAAEAPAATPAAAPASAAVLPTNFLPPPQHNDRARMMQSKEDQAPDEDEEGPPPAMPARPTATTETTDATAAAVRSRTRLSYSDNDNDDEEDDYYYNSNSNNVGNHEYNTEYHSWNVTEIEGRKKKKAKLSIGNNKINFIPQKGTPHEWSIDKLVSYDNEKKHMFLEFVDPYRSLELHTGNTTTCEEIMNIIGEYKGASRDPGLREVEMASKSKKRGIVQYDFMAESQDELTIKSGDKVYILDDKKSKDWWMCQLVDSGKSGLVPAQFIEPVRDKKHTESTASGIIKSIKKNFTKSPSRSRSRSRSKSNANASWKDDELQNDVVGSAAGKRSRKSSLSSHKKNSSATKDFPNPKKSRLWVDRSGTFKVDAEFIGCAKGKIHLHKANGVKIAVAADKLSNEDLAYVEKITGFSLEKFKANDGSSSRGTDSRDSERERRRRLKEQEEKERDRRLKERELYELKKARELLDEERSRLQEKELPPIKPPRPTSTTSVPNTTSVPPAESSNNNNSSNKYDWFEFFLNCGVDVSNCQRYTINFDREQLTEDMMPDINNSMLRTLGLREGDIVRVMKHLDKKFGRENIASIPTNATGNMFSQPDGSLNVATSPETSLPQQLLPQTTSPAQTAPSTSAETDDAWTVKPASKSESNLLSKKSEFTGSMQDLLDLQPLEPKKAAASTPEPNLKDLEPVKTGGTTVPAAPVSSAPVSSAPAPLDPFKTGGNNILPLSTGFVMMPMITGGDMLPMQRTGGFVVPQTTFGMQSQVTGGILPVQKTGNGLIPISNTGGAMMPQTTFGAAATVLPLQKTGGGLIPIATTGGAQFPQTSFNVQGQQQLPTGSILPVQKTANGLISANTGVSMPTVQRTGGTMIPQTSFGVSQQLTGGAMMTQPQNTGSAMMPQTSFNAVPQITGGAMMPQTSFNALPQVTGGAMMPLQRTGGALNTFNTGGAMIPQTSFSSQAQNTGGFRPQSQFGLTLQKTGGIAPLNQNQFTGGAMNTLSTGGVLQQQQPQTMNTFNTGGVMQELQMMTTFNTGGAMQQPQMMNTFNTDGIMQQPQMMNTFNTGGAMQQPQQQALQNQPTGFGFGNGPQQSRQANIFNATASNPFGF | 4.393 | 4.393 | 2.803 | 0.1 | 4.843 | 0 | – | – | – | – | – | – | – | – | –
2 | YNL243W (protein, UniProt P33338 1-968, looked up) Protein SLA2: MSRIDSDLQKALKKACSVEETAPKRKHVRACIVYTWDHQSSKAVFTTLKTLPLANDEVQLFKMLIVLHKIIQEGHPSALAEAIRDRDWIRSLGRVHSGGSSYSKLIREYVRYLVLKLDFHAHHRGFNNGTFEYEEYVSLVSVSDPDEGYETILDLMSLQDSLDEFSQIIFASIQSERRNTECKISALIPLIAESYGIYKFITSMLRAMHRQLNDAEGDAALQPLKERYELQHARLFEFYADCSSVKYLTTLVTIPKLPVDAPDVFLINDVDESKEIKFKKREPSVTPARTPARTPTPTPPVVAEPAISPRPVSQRTTSTPTGYLQTMPTGATTGMMIPTATGAANAIFPQATAQMQPDFWANQQAQFANEQNRLEQERVQQLQQQQAQQELFQQQLQKAQQDMMNMQLQQQNQHQNDLIALTNQYEKDQALLQQYDQRVQQLESEITTMDSTASKQLANKDEQLTALQDQLDVWERKYESLAKLYSQLRQEHLNLLPRFKKLQLKVNSAQESIQKKEQLEHKLKQKDLQMAELVKDRDRARLELERSINNAEADSAAATAAAETMTQDKMNPILDAILESGINTIQESVYNLDSPLSWSGPLTPPTFLLSLLESTSENATEFATSFNNLIVDGLAHGDQTEVIHCVSDFSTSMATLVTNSKAYAVTTLPQEQSDQILTLVKRCAREAQYFFEDLMSENLNQVGDEEKTDIVINANVDMQEKLQELSLAIEPLLNIQSVKSNKETNPHSELVATADKIVKSSEHLRVDVPKPLLSLALMIIDAVVALVKAAIQCQNEIATTTSIPLNQFYLKNSRWTEGLISAAKAVAGATNVLITTASKLITSEDNENTSPEQFIVASKEVAASTIQLVAASRVKTSIHSKAQDKLEHCSKDVTDACRSLGNHVMGMIEDDHSTSQQQQPLDFTSEHTLKTAEMEQQVEILKLEQSLSNARKRLGEIRRHAYYNQDDD | 4.661 | – | 2.46 | 0.1 | 4.4709 | 0 | 1.569 | 0.1 | 1.569 | 0.1 | 4.4709 | 0 | – | – | –
3 | YDR166C (protein, UniProt P89102 1-971, looked up) Exocyst complex component SEC5: MDRFQIGDEQLLRFYQLKTINPTHSWAQDSSKLNNEEATSNELGVETSFDILKDFKYGNQISIDKESRAYLNDESLSYIRDPLNGQEMSKELQHLPNDSMRLNYLVNSKQFNVKAFLRDMHKQDSFNDLNNSLDRLDSDIQDQSIHLKQLVGKNFTKYVKIKNKLDQIYKEFDEKTNEKNQCDSPKENQINVESLNKKVDEVIRTTTFKLKPLMDNYQKILNYQATKKFIELNKFYFNLPKSLKRCLTNNDFNEFIIEYSKGLTLRRRFNQSSDASQSLVIKRIWTQIENLLVTYKDLIWNSLINSNFNIDQPQETILSLFSKLLNLENFINNNQRESESGNKNTTSSSNENPILRWMSIKMNGFQNELNELSGHMISKIIHSQRLILQNNTNQDKSQGCVELSYYLKINQLFQIISDTGKDSEGLKSTVEPNKVNTISGTSYLNLNCQPSSQGLTDSPTIIEMWLLILKYINDLWKICDQFIEFWEHIEKFLDGTYQNSIINEKRKENILIGDSNIIESYQKSLILKEEQINEVRLKGEEFITSVSQNLISFFTSSQSSLPSSLKDSTGDITRSNKDSGSPLDYGFIPPNCNGLSCLRYLPKIVEPILKFSTELAQLNITTNGITICRNTLSTIINRCVGAISSTKLRDISNFYQLENWQVYETVTFSSKSQDSSKNLTFEYGVTQFPEIVTSFQEVSIKTTRDLLFAYEKLPIINGISVVSYPSKQLLTGIEIQQIISMEAVLEAILKNAAKDKDNPRNSHTILTLTNLQYFRECAFPNILQYFDDAFEWNLASKNLELFSLLSKMESSIFGNYLSDLKINLRDTLEEKFHEINWPMYTSNSFRVGDYIIEALMILIVVHSECFRIGPQLIHKILIETQIFIARYLFEAFKPYVGNLSNDGSLQIIVDLEFFQKVMGPLLEKDTEATLRACLQNCFQNDTNRLQKCINEINPIVSANLKRTAIQFAAFS | – | – | – | – | – | – | 2.981 | 0.1 | 2.981 | – | – | – | 1.688 | 0.1 | –
4 | YER114C (protein) PMYIAINEYFKRMEDELDMKPGDKIKVITDDEEYKDGWYFGRNLRTNEEGLYPVVFTQKIT | – | – | – | – | – | – | 2.85 | 0.1 | 2.85 | – | – | – | 3.383 | – | –
5 | YGR229C (protein, UniProt P32566 1-505, looked up) Cell wall assembly regulator …: MDLFKRKVKEWVYSLSTDDHYAEYNPDETPTFNMGKRLNSNNGQVNPSQMHLNSVDEEMSMGFQNGVPSNEDINIDEFTSTESNDGVSETLLAWRHIDFWTSEHNPDLNATLSDPCTQNDITHAEEDLEVSFPNPVKASFKIHDGQEDLESMTGTSGLFYGFQLMTLDQVVAMTQAWRNVAKNLNKRSQQGLSHVTSTGSSSSMERLNGNKFKLPNIPDQKSIPPNAVQPVYAHPAWIPLITDNAGNHIGVDLAPGPNGKYAQIITFGRDFDTKFVIAENWGEFLLSFANDLEAGNWYLVDDNDDYFSGDGELVFRDKKSNGPIQDYFEVLKRRTWIKYQENLRSQQQKSQPDTSLQEQKYVPASQKKVAAEQPSTLNAESIKGEDSGSADVQSVQDHESVKIVKTEPSEAETTTVNTESLGQAEHEIKADNVDIKQESERKEDEKQPKVEEKEHVENEHVTESAKKDDDVNKQTEEMNKKEENEIRSDDAKVEEAREEFENIAL | 3.977 | – | 2.755 | 0.1 | 3.075 | 0 | 1.341 | – | 1.341 | 0.1 | 3.075 | 1 | – | – | 0.1

From article PMC7954794, “Protein context shapes the specificity of SH3 domain-mediated interactions in vivo” (Nature Communications, 2021)
